Test results taken from PMC2878131 (Science (New York, N.Y.), 2010).

Target: T1, preMADH α subunit (Paracoccus denitrificans, UniProt P29894 29-417)
T1 sequence (looked up): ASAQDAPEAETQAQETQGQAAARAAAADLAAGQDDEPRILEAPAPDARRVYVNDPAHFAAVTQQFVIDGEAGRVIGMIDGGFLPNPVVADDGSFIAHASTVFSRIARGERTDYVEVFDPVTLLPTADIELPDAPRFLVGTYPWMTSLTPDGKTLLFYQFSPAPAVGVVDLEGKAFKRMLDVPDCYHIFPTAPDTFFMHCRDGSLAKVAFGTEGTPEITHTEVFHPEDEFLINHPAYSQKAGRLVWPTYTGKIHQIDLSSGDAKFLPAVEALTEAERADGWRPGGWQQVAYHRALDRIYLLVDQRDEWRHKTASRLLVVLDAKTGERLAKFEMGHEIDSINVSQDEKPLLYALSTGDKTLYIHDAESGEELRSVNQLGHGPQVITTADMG
Experiment: crystal structure

binding result: binds
B1: preMADH β subunit (natural protein, Paracoccus denitrificans, UniProt P22619 58-188, looked up)
chain: ADAPAGTDPRAKWVPQDNDIQACDYWRHCSIDGNICDCSGGSLTNCPPGTKLATASWVASCYNPTDGQSYLIAYRDCCGYNVSGRCPCLNTEGELPVYRPEFANDIIWCFGAEDDAMTYHCTISPIVGKAS
modifications: βTrp57 monohydroxylated at the C7 carbon of the indole ring; no cross-link between βTrp57 and βTrp108
